The target of experiment [1] is T1, constitutively active TβR-I (Homo sapiens, UniProt P36897, T204D).
T1 construct: made in house; host or cells: Mv1Lu cells (expressed, immunoprecipitated)
T1 sequence (P36897 34-503 T204D): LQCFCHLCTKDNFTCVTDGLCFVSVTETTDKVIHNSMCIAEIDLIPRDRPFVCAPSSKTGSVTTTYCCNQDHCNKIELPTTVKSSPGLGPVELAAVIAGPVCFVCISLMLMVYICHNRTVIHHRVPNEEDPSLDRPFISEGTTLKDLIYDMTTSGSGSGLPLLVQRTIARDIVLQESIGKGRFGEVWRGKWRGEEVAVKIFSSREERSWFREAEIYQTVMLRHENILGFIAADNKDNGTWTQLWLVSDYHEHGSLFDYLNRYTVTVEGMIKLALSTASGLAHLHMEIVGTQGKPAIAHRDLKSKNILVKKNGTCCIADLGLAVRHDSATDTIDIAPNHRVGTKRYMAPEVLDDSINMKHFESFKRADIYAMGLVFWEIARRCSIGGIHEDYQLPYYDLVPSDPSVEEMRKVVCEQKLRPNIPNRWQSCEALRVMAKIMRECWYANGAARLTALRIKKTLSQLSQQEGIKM
In words: In vitro kinase assay with immunoprecipitated constitutively active TβR-I expressed in Mv1Lu cells. The note with it: immunoprecipitated from Mv1Lu cells, data not shown. It counts as biochemical.

The target in experiment [2] is T2, GST-TβR-I (Homo sapiens, UniProt P36897, T204D).
T2 construct: the complete cytoplasmic part (amino acid residues 148-503) of constitutively active TβR-I (T204D) FLAG-tagged at the C-terminus; made in house; host or cells: E. coli
T2 sequence (P36897 148-503 T204D): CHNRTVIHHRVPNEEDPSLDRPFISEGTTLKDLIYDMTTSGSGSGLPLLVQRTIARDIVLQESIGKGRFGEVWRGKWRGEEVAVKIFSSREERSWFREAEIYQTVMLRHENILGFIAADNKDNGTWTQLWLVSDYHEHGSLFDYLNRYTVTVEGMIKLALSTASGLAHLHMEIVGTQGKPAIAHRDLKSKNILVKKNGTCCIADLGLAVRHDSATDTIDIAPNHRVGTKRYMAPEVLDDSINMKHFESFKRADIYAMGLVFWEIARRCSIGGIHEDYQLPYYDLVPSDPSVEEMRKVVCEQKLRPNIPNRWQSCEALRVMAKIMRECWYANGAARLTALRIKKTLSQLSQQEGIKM
The experiment in a line: Phosphorylation of GST-Smad2 by GST-TβR-I, in vitro kinase assay. It counts as biochemical. The note with it: for Inhibition of phosphorylation at the C-terminus of GST-Smad2: FIG. 4B; for Concentration at which effect of Sm2 peptides was observed / Concentration of maximal inhibition: in vitro kinase assay; for Concentration of maximal inhibition: data not shown. On the procedure: (§1) In vitro kinase assay: GST-TβRI activity was assayed in vitro using the known TβR-I substrates GST-Smad3deltaMH1, GST-Smad2; GST-Smad1 was used as a control for specificity. The reaction mixture (20 μl) contained 20 mM HEPES (pH 7.4), 10 mM MgCl2, 2 mM MnCl2, 1 mM dithiothreitol (DTT), 5 μM ATP plus 0.5 μCi [γ^32P]ATP (Redivue, Amersham Biosciences), and inhibitors at different concentrations. The reaction was initiated by an addition of 0.02 μg purified GST-TβRI, followed by incubation at 22° C. for 20 min. Reaction was terminated by addition of 5 μl of 5× SDS-sample buffer. Samples were subjected to SDS-PAGE followed by analysis in a FujiX2000 phosphorimager. For all in vitro enzyme assays, the percent inhibition was calculated as 100×(1-Ai/A0), where Ai and A0 are levels of GST-Smad phosphorylation in the presence and absence of inhibitors, respectively. […] Phosphorylated GST-Smad3deltaMH1 and autophosphorylated GST-TβRI were analyzed by tryptic phosphopeptide mapping, as described previously.
Phosphorylation of GST-Smad2 by GST-TβR-I was performed in an in vitro kinase assay (FIG. 4B). The peptides were added as indicated.

For the next experiment, the target named is p38R (Homo sapiens, UniProt Q16539). The experiment in a line: In vitro kinase assay of kinase expressed in COS-7 cells. It counts as biochemical. The note with it: 10 μM peptide, FIG. 5. On the procedure: (§2) For in vitro kinase assay of type I and type II TGFβ family receptors, p38α and SAPKα2 kinases, COS-7 cells were transfected with the kinase expression vectors or the control empty pcDNA3 vector using the DEAE-dextran method. Proteins were extracted in a lysis buffer (50 mM Tris-HCl, pH 7.5, 50 mM NaCl, 1% NP-40, 10 μg/mL aprotinin, 0.1 mM PMSF). HA-tagged proteins (ALK1 to ALK7, p38R, SAPKR2) were immunoprecipitated with anti-HA antibody (12CA5; Roche); His6-tagged proteins (type II receptors) were precipitated with Ni-NTA agarose (Qiagen). The precipitates were washed in extraction buffer, with 20 mM imidazole for Ni-NTA agarose-precipitated proteins, and two times with kinase buffer (20 mM HEPES, pH 7.4, 10 mM MgCl2, 2 mM MnCl2, 1 mM DTT). The kinase reaction was initiated by addition of 20 μL of kinase buffer containing 0.5 μCi of [γ-32P]ATP, 5.0 μM ATP, and inhibitory peptides at a final concentration of 10 μM. The reaction was performed at 22° C. for 20 min and terminated by addition of SDS-containing sample buffer and boiling for 5 min. The reaction products were analyzed by SDS-PAGE and exposure in a Fuji X2000 phosphorimager. Equal loading was controlled by immunoblotting aliquots of the samples with a HA probe (Y-11; Santa Cruz) or anti-His antibody (Qiagen).
Sequence of p38R (Q16539 whole entry): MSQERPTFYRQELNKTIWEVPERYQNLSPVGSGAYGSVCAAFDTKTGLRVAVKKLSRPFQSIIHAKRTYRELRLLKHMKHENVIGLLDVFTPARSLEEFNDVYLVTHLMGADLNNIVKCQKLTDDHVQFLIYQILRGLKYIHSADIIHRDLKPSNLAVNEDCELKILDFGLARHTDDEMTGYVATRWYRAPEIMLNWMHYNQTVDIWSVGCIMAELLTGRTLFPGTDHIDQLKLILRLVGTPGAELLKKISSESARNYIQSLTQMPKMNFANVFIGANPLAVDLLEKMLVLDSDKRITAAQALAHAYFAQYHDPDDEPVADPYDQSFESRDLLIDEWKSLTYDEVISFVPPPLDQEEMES
(§3) To evaluate whether the substrate-mimicking peptides affect kinases of type I and type II reptors of the TGFβ family, we studied the influence of peptides on authophosphorylation of all known mammalian type I receptors [ALK-1, ActR-I (ALK-2), BMPR-IA (ALK-3), ActR-IB (ALK-4), TβR-I (ALK-5), BMPR-IB (ALK-6), and ALK-7], TβRII, ActR-II, BMPR-II, p38R, and SAPKR2 (FIG. 5). The kinases were expressed in COS-7 cells and purified by using specific anti-tag antibodies or Ni-NTA agarose, and kinase activity was tested in the presence of peptides.

A further experiment addresses SAPKR2 (Homo sapiens, UniProt P45984). The description is as above. The note with it: 10 μM peptide, FIG. 5. It counts as biochemical. Here is the method:
as §2, §3

Experiment [3] deals with phosphorylation of endogenous Smad2 by TβR-I in Mv1Lu cells. In words: TGFβ1-dependent phosphorylation of endogenous Smad2 in Mv1Lu cells (pS2 immunoblot). It counts as cell-based. The following applies: Mv1Lu cells pretreated with peptide, 15 min TGFβ1, FIG. 6A. (In general: A western blot detects proteins with antibodies after separation by electrophoresis.)
The target in experiment [4] is T2, GST-TβR-I. In words: GST-TβR-I autophosphorylation assay. It counts as biochemical. The following applies: peptides at 1 and 10 μM, FIG. 4A. On the procedure:
as §1
A GST-TβR-I autophosphorylation assay was performed in the absence or presence of antp-Sm2S (SEQ ID NO:3), antp-Sm2A (SEQ ID NO:2) and antp-Sm5A (SEQ ID NO:4) peptides at concentrations of 1 and 10 μM, as indicated (FIG. 4A).

Experiment [5] deals with TGFβ1-dependent stimulation of ARE-luc in Mv1Lu cells. In words: ARE-luc luciferase reporter assay (Smad2-responsive element) in Mv1Lu cells. The following applies: peptide 50 μM, TGFβ1 10 ng/ml, 18 hours. It counts as cell-based. In general terms: Reporter assays use an easily measured gene product as a stand-in for the process of interest.

On to “RQIKIWFQNRRMKWKKTQMGSPSVRCSAMA (listed as Homo sapiens) [antp-Sm2A]”, for which, in experiment [1], the “Inhibition of autophosphorylation of TβR-I” value is listed as “inhibited autophosphorylation”. In the experiment with GST-TβR-I [2], the “Inhibition of phosphorylation at the C-terminus of GST-Smad2” value is “inhibited”, the “Concentration at which effect of Sm2 peptides was observed” value was found to be 10 µM and the “Concentration of maximal inhibition” value was 200 µM. Besides, the “Effect on p38R kinase” value in the experiment with p38R is “without any effect”. Moreover, in the experiment with SAPKR2, the “Effect on SAPKR2 kinase” value is on record as “without any effect”. The “Inhibition of TGFβ1-dependent phosphorylation of endogenous Smad2 compared to nontreated cells” value in experiment [3] worked out at 67%. Further, the “Inhibition of autophosphorylation of GST-TβR-I” value in the experiment with GST-TβR-I [4] is “had a stronger effect”. In experiment [5], the “Inhibition of TGFβ1-dependent stimulation of ARE-luc” value is recorded as “up to 31%”.
For “RQIKIWFQNRRMKWKKTQMGSPSVRCSSMS (listed as Homo sapiens) [antp-Sm2S, penetratin fused to the C-terminus of wild-type Smad2]”, the “Inhibition of autophosphorylation of TβR-I” value in experiment [1] is reported as “inhibited autophosphorylation”. Moreover, in the experiment with GST-TβR-I [2], the “Inhibition of phosphorylation at the C-terminus of GST-Smad2” value is given as “less pronounced”, the “Concentration at which effect of Sm2 peptides was observed” value came to 10 µM and the “Concentration of maximal inhibition” value stood at 200 µM. In addition, the “Effect on p38R kinase” value in the experiment with p38R is reported as “without any effect”. The “Effect on SAPKR2 kinase” value in the experiment with SAPKR2 was “without any effect”. The “Effect of peptides on TGFβ1-dependent phosphorylation of endogenous Smad2” value in experiment [3] was “weaker affect”. For the same sequence, the “Inhibition of autophosphorylation of GST-TβR-I” value with GST-TβR-I [4] is “inhibited autophosphorylation”. Also, the “Effect on TGFβ1-dependent stimulation of ARE-luc” value in experiment [5] was “no effect”.

For the origin of these results see patent US20050136043A1, “TGFbeta signaling inhibitors” (Ludwig Institute for Cancer Research, priority 2003, published 2005).
